Test results: IntAct's records for PubMed 34637754

B1: Autism susceptibility gene 2 protein homolog (Mus musculus), A0A087WPF7 (parent)
chain: MDGPTRGHGLRKKRRSRSQRDRERRSRAGLGTGAAGGIGAGRTRAPSLASSSGSDKEDNGKPPSSAPSRPRPPRRKRRESTSAEEDIIDGFAMTSFVTFEALEKDVAVKPQERAEKRQTPLTKKKREALTNGLSFHSKKSRLSHSHHYSSDRENDRNLCQHLGKRKKMPKGLRQLKPGQNSCRDSDSESASGESKGFQRSSSRERLSDSSAPSSLGTGYFCDSDSDQEEKASDASSEKLFNTVLVNKDPELGVGALPEHNQDAGPIVPKISGLERSQEKSQDCCKEPVFEPVVLKDPHPQLPQLPSQAQAEPQLQIPSPGPDLVPRTEAPPQFPPPSTQPAQGPPEAQLQPAPLPQVQQRPPRPQSPSHLLQQTLPPVQSHPSSQSLSQPLSAYNSSSLSLNSLSSRSSTPAKTQPAPPHISHHPSASPFPLSLPNHSPLHSFTPTLQPPAHSHHPNMFAPPTALPPPPPLTSGSLQVPGHPAGSTYSEQDILRQELNTRFLASQSADRGASLGPPPYLRTEFHQHQHQHQHTHQHTHQHTFTPFPHAIPPTAIMPTPAPPMFDKYPTKVDPFYRHSLFHSYPPAVSGIPPMIPPTGPFGSLQGAFQPKTSNPIDVAARPGTVPHTLLQKDPRLTDPFRPMLRKPGKWCAMHVHIAWQIYHHQQKVKKQMQSDPHKLDFGLKPEFLSRPPGPSLFGAIHHPHDLARPSTLFSAAGAAHPTGTPFGPPPHHSNFLNPAAHLEPFNRPSTFTGLAAVGGNAFGGLGNPSVTPNSVFGHKDSPSVQNFSNPHEPWNRLHRTPPSFPTPPPWLKPGELERSASAAAHDRDRDVDKRDSSVSKDDKERESVEKRHPSHPSPAPPVPVSALGHNRSSTDPTTRGHLNTEAREKDKPKEKERDHSGSRKDLTTEEHKAKESHLPERDGHSHEGRAAGEEPKQLSRVPSPYVRTPGVDSTRPNSTSSREAEPRKGEPAYENPKKNAEVKVKEERKEDHDLPTEAPQAHRTSEAPPPSSSASASVHPGPLASMPMTVGVTGIHAMNSIGSLDRTRMVTPFMGLSPIPGGERFPYPSFHWDPMRDPLRDPYRDLDMHRRDPLGRDFLLRNDPLHRLSTPRLYEADRSFRDREPHDYSHHHHHHHHPLAVDPRREHERGGHLDERERLHVLREDYEHPRLHPVHPASLDGHLPHPSLLTPGLPSMHYPRISPTAGHQNGLLNKTPPTAALSAPPPLISTLGGRPGSPRRTTPLSAEIRERPPSHTLKDIEAR
B2: Autism susceptibility gene 2 protein (Homo sapiens), Q8WXX7 (parent)
chain: MDGPTRGHGLRKKRRSRSQRDRERRSRGGLGAGAAGGGGAGRTRALSLASSSGSDKEDNGKPPSSAPSRPRPPRRKRRESTSAEEDIIDGFAMTSFVTFEALEKDVALKPQERVEKRQTPLTKKKREALTNGLSFHSKKSRLSHPHHYSSDRENDRNLCQHLGKRKKMPKALRQLKPGQNSCRDSDSESASGESKGFHRSSSRERLSDSSAPSSLGTGYFCDSDSDQEEKASDASSEKLFNTVIVNKDPELGVGTLPEHDSQDAGPIVPKISGLERSQEKSQDCCKEPIFEPVVLKDPCPQVAQPIPQPQTEPQLRAPSPDPDLVQRTEAPPQPPPLSTQPPQGPPEAQLQPAPQPQVQRPPRPQSPTQLLHQNLPPVQAHPSAQSLSQPLSAYNSSSLSLNSLSSSRSSTPAKTQPAPPHISHHPSASPFPLSLPNHSPLHSFTPTLQPPAHSHHPNMFAPPTALPPPPPLTSGSLQVAGHPAGSTYSEQDILRQELNTRFLASQSADRGASLGPPPYLRTEFHQHQHQHQHTHQHTHQHTFTPFPHAIPPTAIMPTPAPPMFDKYPTKVDPFYRHSLFHSYPPAVSGIPPMIPPTGPFGSLQGAFQPKTSNPIDVAARPGTVPHTLLQKDPRLTDPFRPMLRKPGKWCAMHVHIAWQIYHHQQKVKKQMQSDPHKLDFGLKPEFLSRPPGPSLFGAIHHPHDLARPSTLFSAAGAAHPTGTPFGPPPHHSNFLNPAAHLEPFNRPSTFTGLAAVGGNAFGGLGNPSVTPNSMFGHKDGPSVQNFSNPHEPWNRLHRTPPSFPTPPPWLKPGELERSASAAAHDRDRDVDKRDSSVSKDDKERESVEKRHSSHPSPAPVLPVNALGHTRSSTEQIRAHLNTEAREKDKPKERERDHSESRKDLAADEHKAKEGHLPEKDGHGHEGRAAGEEAKQLARVPSPYVRTPVVESARPNSTSSREAEPRKGEPAYENPKKSSEVKVKEERKEDHDLPPEAPQTHRASEPPPPNSSSSVHPGPLASMPMTVGVTGIHPMNSISSLDRTRMMTPFMGISPLPGGERFPYPSFHWDPIRDPLRDPYRELDIHRRDPLGRDFLLRNDPLHRLSTPRLYEADRSFRDREPHDYSHHHHHHHHPLSVDPRREHERGGHLDERERLHMLREDYEHTRLHSVHPASLDGHLPHPSLITPGLPSMHYPRISPTAGNQNGLLNKTPPTAALSAPPPLISTLGGRPVSPRRTTPLSAEIRERPPSHTLKDIEAR

Assays:
[1] = variants of: B1; conditions: with ep300_mouse Ep300, B2RWS6
[2] = variants of: B1; conditions: with ring2_mouse Rnf2, Q9CQJ4
[3] = variants of: B1; conditions: with nf2l1_mouse Nfe2l1, Q61985
[4] = variants of: B2; conditions: with ep300_human EP300, Q09472
[5] = variants of: B2; conditions: with ring2_human RNF2, Q99496
[6] = variants of: B2; conditions: with ep300_human EP300, Q09472; remark: listed apart in the source

Sequence of ep300_human EP300, Q09472 (Q09472 whole entry): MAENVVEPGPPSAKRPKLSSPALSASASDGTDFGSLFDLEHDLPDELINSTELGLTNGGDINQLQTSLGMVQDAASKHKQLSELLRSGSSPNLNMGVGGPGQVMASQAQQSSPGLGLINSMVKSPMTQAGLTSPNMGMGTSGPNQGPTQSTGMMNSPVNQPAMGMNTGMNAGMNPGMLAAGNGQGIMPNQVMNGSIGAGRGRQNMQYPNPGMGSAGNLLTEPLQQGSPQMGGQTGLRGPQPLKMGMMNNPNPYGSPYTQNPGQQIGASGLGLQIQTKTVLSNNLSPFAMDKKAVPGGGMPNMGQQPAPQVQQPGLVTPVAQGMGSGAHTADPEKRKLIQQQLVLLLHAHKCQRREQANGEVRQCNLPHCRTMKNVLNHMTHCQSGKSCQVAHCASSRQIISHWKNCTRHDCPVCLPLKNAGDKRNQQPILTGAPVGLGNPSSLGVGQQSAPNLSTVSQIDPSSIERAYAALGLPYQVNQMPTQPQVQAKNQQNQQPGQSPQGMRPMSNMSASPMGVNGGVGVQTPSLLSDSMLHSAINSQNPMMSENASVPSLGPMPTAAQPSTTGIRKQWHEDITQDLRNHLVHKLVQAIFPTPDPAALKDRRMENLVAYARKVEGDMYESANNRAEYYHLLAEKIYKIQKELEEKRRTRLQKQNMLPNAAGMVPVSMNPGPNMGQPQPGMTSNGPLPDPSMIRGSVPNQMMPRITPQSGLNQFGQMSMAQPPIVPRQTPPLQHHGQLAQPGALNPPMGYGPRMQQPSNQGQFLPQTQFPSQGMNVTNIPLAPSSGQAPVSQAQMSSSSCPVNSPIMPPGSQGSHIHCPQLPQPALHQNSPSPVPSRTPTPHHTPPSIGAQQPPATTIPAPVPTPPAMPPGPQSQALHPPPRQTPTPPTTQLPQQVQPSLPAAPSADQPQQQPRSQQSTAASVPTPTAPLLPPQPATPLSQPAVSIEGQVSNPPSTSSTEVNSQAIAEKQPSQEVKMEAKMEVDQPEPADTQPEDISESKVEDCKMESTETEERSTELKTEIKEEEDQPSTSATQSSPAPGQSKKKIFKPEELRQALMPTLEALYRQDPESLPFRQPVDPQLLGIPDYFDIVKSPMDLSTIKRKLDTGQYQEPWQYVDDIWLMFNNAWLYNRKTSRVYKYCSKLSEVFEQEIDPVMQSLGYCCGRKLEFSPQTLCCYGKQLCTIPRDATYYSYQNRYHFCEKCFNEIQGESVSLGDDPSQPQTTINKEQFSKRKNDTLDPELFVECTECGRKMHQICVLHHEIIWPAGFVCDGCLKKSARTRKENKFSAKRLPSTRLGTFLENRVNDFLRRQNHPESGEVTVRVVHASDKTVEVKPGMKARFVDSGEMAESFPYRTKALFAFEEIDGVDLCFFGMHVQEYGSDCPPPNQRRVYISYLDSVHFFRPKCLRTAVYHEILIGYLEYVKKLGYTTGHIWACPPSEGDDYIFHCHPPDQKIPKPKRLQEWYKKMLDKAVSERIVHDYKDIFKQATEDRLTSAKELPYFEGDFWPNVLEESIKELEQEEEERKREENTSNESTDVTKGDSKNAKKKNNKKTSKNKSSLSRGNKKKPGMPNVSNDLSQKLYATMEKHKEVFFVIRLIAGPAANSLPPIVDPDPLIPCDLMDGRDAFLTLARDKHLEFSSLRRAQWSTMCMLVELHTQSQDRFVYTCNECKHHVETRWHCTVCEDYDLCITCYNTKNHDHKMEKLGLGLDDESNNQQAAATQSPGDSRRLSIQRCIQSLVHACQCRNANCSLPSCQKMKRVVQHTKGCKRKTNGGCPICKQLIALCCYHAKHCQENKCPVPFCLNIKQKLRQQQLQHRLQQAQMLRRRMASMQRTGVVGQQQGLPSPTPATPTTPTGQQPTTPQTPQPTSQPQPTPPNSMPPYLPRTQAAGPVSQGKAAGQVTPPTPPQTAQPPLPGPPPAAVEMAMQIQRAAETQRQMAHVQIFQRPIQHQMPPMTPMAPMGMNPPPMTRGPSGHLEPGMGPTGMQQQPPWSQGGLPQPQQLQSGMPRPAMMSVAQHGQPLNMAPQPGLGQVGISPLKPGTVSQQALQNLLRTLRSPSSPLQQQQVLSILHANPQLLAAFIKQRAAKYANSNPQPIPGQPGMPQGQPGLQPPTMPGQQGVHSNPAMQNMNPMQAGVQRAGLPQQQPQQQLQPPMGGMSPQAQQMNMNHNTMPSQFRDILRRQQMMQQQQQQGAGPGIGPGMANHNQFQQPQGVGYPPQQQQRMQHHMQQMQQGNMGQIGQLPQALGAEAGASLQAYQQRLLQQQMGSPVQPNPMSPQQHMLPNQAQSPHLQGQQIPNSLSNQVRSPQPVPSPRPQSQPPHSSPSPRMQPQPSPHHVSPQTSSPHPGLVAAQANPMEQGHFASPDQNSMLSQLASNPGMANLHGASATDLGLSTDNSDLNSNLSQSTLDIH
Sequence of ring2_human RNF2, Q99496 (Q99496 whole entry): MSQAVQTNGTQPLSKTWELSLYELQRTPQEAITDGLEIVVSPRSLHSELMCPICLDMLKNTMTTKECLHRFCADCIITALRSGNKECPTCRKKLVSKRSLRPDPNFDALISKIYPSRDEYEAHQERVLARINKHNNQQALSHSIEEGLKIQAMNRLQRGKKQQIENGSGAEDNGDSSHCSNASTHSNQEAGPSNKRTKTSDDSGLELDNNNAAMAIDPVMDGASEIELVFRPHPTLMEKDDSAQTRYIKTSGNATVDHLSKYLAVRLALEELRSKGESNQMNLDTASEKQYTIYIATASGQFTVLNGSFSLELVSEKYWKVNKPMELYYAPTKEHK
Sequence of ring2_mouse Rnf2, Q9CQJ4 (Q9CQJ4 whole entry): as the sequence (Q99496 whole entry) above, with M214V counted along it
Sequence of nf2l1_mouse Nfe2l1, Q61985 (Q61985 whole entry): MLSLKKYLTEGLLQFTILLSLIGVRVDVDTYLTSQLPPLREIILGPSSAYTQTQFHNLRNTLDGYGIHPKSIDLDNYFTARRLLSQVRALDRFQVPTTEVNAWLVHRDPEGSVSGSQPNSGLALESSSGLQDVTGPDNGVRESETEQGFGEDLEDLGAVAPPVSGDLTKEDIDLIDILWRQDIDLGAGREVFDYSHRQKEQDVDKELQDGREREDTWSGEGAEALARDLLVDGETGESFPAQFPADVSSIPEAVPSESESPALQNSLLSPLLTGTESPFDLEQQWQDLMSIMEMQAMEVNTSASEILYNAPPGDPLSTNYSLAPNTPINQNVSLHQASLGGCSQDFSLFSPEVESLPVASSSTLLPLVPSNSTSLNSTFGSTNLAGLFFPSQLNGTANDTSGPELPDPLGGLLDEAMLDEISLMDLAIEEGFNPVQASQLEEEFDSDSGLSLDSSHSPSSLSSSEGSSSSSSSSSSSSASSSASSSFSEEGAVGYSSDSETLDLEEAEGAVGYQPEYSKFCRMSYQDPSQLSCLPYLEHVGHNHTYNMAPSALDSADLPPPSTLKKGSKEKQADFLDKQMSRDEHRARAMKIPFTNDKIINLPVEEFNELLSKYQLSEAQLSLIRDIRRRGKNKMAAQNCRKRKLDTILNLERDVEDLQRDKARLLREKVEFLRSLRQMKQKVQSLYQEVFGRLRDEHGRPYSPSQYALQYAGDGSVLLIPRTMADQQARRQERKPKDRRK

Row | effect of a mutation on the interaction [1] | effect of a mutation on the interaction [2] | effect of a mutation on the interaction [3] | effect of a mutation on the interaction [4] | effect of a mutation on the interaction [5] | effect of a mutation on the interaction [6] | Variant
1 | disrupting interaction | with no effect | with no effect |  |  |  | T533P
2 |  |  |  | disrupting interaction | with no effect |  | T534P
3 |  |  |  | decreasing interaction | increasing interaction | with no effect | P517L
